According to PMC5389812, “Rv3634c from Mycobacterium tuberculosis H37Rv encodes an enzyme with UDP-Gal/Glc and UDP-GalNAc 4-epimerase activities” (PLoS ONE, 2017):

Biological target: the molecule itself
Test: SEC; Superdex 200 16/600 GL column, FPLC buffer (20 mM Tris pH 8.0, 100 mM NaCl); calibrated with conalbumin, ovalbumin, carbonic anhydrase, ribonuclease A and aprotinin; molecular weight from Kav

B1: His-tagged Rv3634c (H3634), wild type, UDP-Gal/Glc and UDP-GalNAc 4-epimerase from Mycobacterium tuberculosis H37Rv (enzyme)
chain: MRALVTGAAGFIGSTLVDRLLADGHSVVGLDNFATGRATNLEHLADNSAHVFVEADIVTADLHAILEQHRPEVVFHLAAQIDVRRSVADPQFDAAVNVIGTVRLAEAARQTGVRKIVHTSSGGSIYGTPPEYPTPETAPTDPASPYAAGKVAGEIYLNTFRHLYGLDCSHIAPANVYGPRQDPHGEAGVVAIFAQALLSGKPTRVFGDGTNTRDYVFVDDVVDAFVRVSADVGGGLRFNIGTGKETSDRQLHSAVAAAVGGPDDPEFHPPRLGDLKRSCLDIGLAERVLGWRPQIELADGVRRTVEYFRHKHTD
notes: the protein is called H3634 (His-tagged Rv3634c) in the size exclusion experiment; also called WT; WT H3634; not shown: His6, N-terminal, kept
- stoichiometry N: 2
